According to US20250313632A1:

Key:
[1] = target: human B7-H3 protein (human) (UniProt Q5ZPR3); assay: Octet (BLI) epitope binning on captured human B7-H3; competitor AHP06345
[2] = target: human B7-H3 protein (human) (UniProt Q5ZPR3); assay: Octet (BLI) epitope binning on captured human B7-H3; competitor CA84D
[3] = target: human B7-H3 (4Ig) protein (his tag) (human) (UniProt Q5ZPR3); assay: SPR (Biacore T200), antibody captured on Protein A chip, B7-H3 injected, 1:1 model
[4] = target: human B7-H3 protein (human) (UniProt Q5ZPR3); assay: Octet (BLI) epitope binning on captured human B7-H3; competitor 72D1D11
[5] = target: human B7-H3 expressed on A375 tumor cells (human) (UniProt Q5ZPR3); assay: flow cytometry on A375 cells, MFI(PE); unit from the axis Conc (nM)
[6] = target: human B7-H3 protein (human) (UniProt Q5ZPR3); assay: Octet (BLI) epitope binning on captured human B7-H3; competitor AHP05562

Binder | inhibition ratio [1] [%] | inhibition ratio [2] [%] | Kd [3] [nM] | koff [3] [s⁻¹] | kon [3] [M⁻¹ s⁻¹] | inhibition ratio [4] [%] | EC50 [5] [nM] | inhibition ratio [6] [%]
97E6B2 (antibody, V domains shown) VH: QVQLQQPGAELVKPGASVKMSCKASGYTFTSYWITWVKQRPGQGLEWIGDIYPGSNNTYYNEKFKSKATLTVDTSSSTAYIQLSSLTSEDSAVYYCARLIMSLFDYSGQGTTLTVSS VL: ENVLTQSPANMSASPGEKVTMTCSVSSSVSYIHWYQQKSSTSPTLWIYDTSKLASGVPGRFSGSGSGNSYALTISSMEAEDVATYYCFQGSAYPLTFGAGTKLELK | -1.18 | -3.99 | 0.743 | 0.000481 | 647000 | 99.7 | 0.26 | -7.8
294A3C4 (antibody, V domains shown) VH: QVQLQQPGAELVKPGASVKLSCKASGYTFTSYWMHWVKQRPGQGLEWIGMFHPNSGTTNYNEKFKSKATLTVDKSSSTAYMQLSSLTSEDSAVYYCARRLGIFFDYWGQGTTLTVSS VL: DIVMTQSPSSLTVTAGEKVTMSCRSSQSLLNSGNQKNYLTWYQQKPGQPPKLLIYWASTRDSGVPDRFTGSGSGTDFTLTISSVQTEDLAVYYCQTDYSYPFTFGSGTKLEIK | -7.53 | -12 | 2.92 | 0.00135 | 463000 | -5 | 0.087 | 90
AHP06358 (antibody, V domains shown) VH: EVQLVQSGAEVKKPGASVKVSCKASGYTFTSYGISWVRQAPGQGLEWMGWISAYNGNTNYAQKLQGRVTMTTDTSTSTAYMELRSLRSDDTAVYYCARDSPLQIAVAGYYYGMDVWGQGTTVTVSS VL: NFMLTQPHSVSESPGKTVTISCTRSSGSIVSGYVQWYQQRPGSAPSTVIYEHNQRPSGVPDRFSGSIDSSSNSASLTISGLRTEDEADYYCQSYDSRNMIFGGGTKLTVL | -10.6 | -13.6 | 0.738 | 0.00396 | 5.37e+06 | -13.9 | 2.4 | 91.7
72D1D11-z3p1 (antibody, V domains shown) VH: QVQLVQSGSELKKPGASVKVSCKASGYTFTNLGLNWVRQAPGQGLEWMGWINTAGGQPTYAEDFKGRFVFSLDTSVSTAYLQISSLKAEDTAVYYCARDDGYYYTMDYWGQGTTVTVSS VL: DIVMTQSPLSLPVTPGEPASISCRSSQSLVHSNAKTYLHWYLQKPGQSPQLLIYKVSNRFSGVPDRFSGSGSGTDFTLKISRVEAEDVGVYYCSQSTHVPWTFGGGTKLEIK |  |  |  |  |  |  | 0.36 | 
72D1D11-z3p2 (antibody, V domains shown) VH: QVQLVQSGSELKKPGASVKVSCKASGYTFTNLGLNWVRQAPGQGLEWMGWINTAGGQPTYAEDFKGRFVFSLDTSVSTAYLQISSLKAEDTAVYYCARDDGYYYTMDYWGQGTTVTVSS VL: DIVMTQSPLSLPVTPGEPASISCRSSQSLVHSQGKTYLHWYLQKPGQSPQLLIYKVSNRFSGVPDRFSGSGSGTDFTLKISRVEAEDVGVYYCSQSTHVPWTFGGGTKLEIK |  |  |  |  |  |  | 0.3 | 
62H9H5 (antibody, V domains shown) VH: QVQLQQSGAELAKPGASVKMSCKASGYTFTNYWIHWVKQRPGQGLEWIGYISPSTGYTEYNQKFKGKATLTAVKSSSTAFMQLSSLTSEDSAVYFCARGTGYWGQGTTLTVSS VL: DIQMTQSPASLSASVGESVTITCRASENIYSFFAWYQQKEGKSPQLLVYNAKTLEEGVPSRFSGSGSGTQFSLKINSLQPEDFGSYYCQHNYVSPFTFGSGTKLEIK | -7.1 | -6.07 | 0.464 | 0.00016 | 346000 | 95.5 | 0.042 | 90.2
